Assay results from patent publication US20160289342A1 (Eli Lilly, published 2016).

Experiments:
[1] = target: T1, recombinant human soluble BAFF (human, UniProt Q9Y275 134-285); assay: MSD-SET with biotinylated recombinant human soluble BAFF, N=3
T1 construct: domain: soluble BAFF; also called human BAFF; soluble human BAFF trimer
Description: Binding affinity and stoichiometry of the exemplified bispecific antibody to human BAFF is measured by MSD-SET using purified recombinant human soluble BAFF (expressed from HEK293 cells). Purified recombinant BAFF is biotinylated using EZ-Link Sulfo-NHS-LC biotin reagent (Thermo Scientific, p/n. 21335).
Multi-array 96-well assay plates (Meso Scale Discovery, p/n. L15XA-3) are coated with 3.5 μg/mL of bispecific antibody and incubated overnight at 4° C. Following incubation, the plates are washed three times with PBS, then blocked using 3% Blocker A solution for 45 minutes at room temperature. The plates are then washed again with PBS. Exemplified bispecific antibody, starting at a concentration of 224 pM, is serially diluted (using 2-fold dilutions) in a V-bottom 96-well plate creating 12 different bispecific antibody concentrations. 7 pM of biotinylated recombinant BAFF is mixed with each dilution of exemplified bispecific antibody and then incubated at 37° C. for 36-48 hours (to reach equilibrium). Equilibrated samples are added to a well of the MSD multi-array 96-well assay plate previously coated with exemplified bispecific antibody; samples are mixed for 2.5 minutes, and then washed three times with PBS. […] 1× Read Buffer T (Meso Scale Discovery, p/n. R92TC-1) is added to each well and plates are read on a MSDSI6000 plate reader (Meso Scale Discovery, Rockville Md.). […]

[2] = target: murine BAFF (murine, UniProt Q9WU72 127-309, limits assumed); assay: not described
[3] = target: FcγIIIa (V158) receptor (UniProt P08637 17-254); assay: cell-based or functional assay
[4] = target: FcγIIIa (F158) receptor (UniProt P08637 17-254); assay: cell-based or functional assay
FcγIIIa (F158) receptor, sequence (P08637 17-254): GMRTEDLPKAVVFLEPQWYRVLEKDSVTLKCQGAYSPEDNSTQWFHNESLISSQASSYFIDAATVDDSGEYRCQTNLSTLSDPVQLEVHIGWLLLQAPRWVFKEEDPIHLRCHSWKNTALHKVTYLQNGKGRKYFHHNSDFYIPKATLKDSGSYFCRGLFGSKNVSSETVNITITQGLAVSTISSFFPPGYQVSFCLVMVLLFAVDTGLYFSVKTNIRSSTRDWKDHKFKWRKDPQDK

T1 sequence (Q9Y275 134-285 limits assumed): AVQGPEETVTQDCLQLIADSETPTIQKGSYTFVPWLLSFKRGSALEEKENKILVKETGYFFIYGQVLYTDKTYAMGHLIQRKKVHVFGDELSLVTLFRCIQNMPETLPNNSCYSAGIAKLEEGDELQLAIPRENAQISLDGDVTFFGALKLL
murine BAFF, sequence (Q9WU72 127-309 limits assumed): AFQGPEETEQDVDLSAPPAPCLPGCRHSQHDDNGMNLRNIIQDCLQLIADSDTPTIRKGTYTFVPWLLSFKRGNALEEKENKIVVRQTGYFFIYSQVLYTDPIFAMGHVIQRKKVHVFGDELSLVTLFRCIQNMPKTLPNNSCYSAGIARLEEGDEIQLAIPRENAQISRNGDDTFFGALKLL
FcγIIIa (V158) receptor, sequence (P08637 17-254 F176V): as the sequence (P08637 17-254) above, with F160V counted along it

B1: exemplified bispecific antibody of Table 1 (anti-CD20 IgG1 mAb with anti-BAFF scFv linked at the N-terminus of each heavy chain) (bispecific antibody)
heavy: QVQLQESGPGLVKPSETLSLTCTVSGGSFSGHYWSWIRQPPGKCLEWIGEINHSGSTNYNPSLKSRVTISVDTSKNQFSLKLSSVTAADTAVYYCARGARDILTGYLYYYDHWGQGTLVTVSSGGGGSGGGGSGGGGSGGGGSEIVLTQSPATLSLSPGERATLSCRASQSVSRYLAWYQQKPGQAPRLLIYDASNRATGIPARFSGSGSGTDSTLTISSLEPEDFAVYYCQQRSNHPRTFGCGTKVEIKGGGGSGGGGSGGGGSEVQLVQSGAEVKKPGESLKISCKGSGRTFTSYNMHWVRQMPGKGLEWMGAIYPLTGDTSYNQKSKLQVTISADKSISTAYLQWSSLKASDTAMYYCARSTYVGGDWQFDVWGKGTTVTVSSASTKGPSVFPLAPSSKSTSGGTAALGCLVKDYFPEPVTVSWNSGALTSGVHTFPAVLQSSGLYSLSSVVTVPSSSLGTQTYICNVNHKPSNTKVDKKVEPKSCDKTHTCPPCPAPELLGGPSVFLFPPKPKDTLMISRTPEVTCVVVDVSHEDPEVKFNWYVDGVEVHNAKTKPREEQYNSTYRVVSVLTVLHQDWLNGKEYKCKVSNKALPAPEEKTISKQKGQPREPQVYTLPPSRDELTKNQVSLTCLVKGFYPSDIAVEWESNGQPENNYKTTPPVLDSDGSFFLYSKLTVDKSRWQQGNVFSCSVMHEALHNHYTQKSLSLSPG
light: EIVLTQSPGTLSLSPGERATLSCRASSSVPYIHWYQQKPGQAPRLLIYATSALASGIPDRFSGSGSGTDFTLTISRLEPEDFAVYYCQQWLSHPPTFGQGTKLEIKRTVAAPSVFIFPPSDEQLKSGTASVVCLLNNFYPREAKVQWKVDNALQSGNSQESVTEQDSKDSTYSLSSTLTLSKADYEKHKVYACEVTHQGLSSPVTKSFNRGEC
modifications: glycosylated at asparagine residue 566 of SEQ ID NO:1
notes: also called Exemplified Bispecific Ab; exemplified antibody
[1]
  Kd: 0.3 pM
[2]
  fold reduction in binding as compared to human BAFF: ~250 fold
[3]
  EC50 of NFAT-luciferase reporter signal (ADCC), WIL2-S + Jurkat (V158): 4.61 pM
[4]
  EC50 of NFAT-luciferase reporter signal (ADCC), WIL2-S + Jurkat (F158): 31.4 pM
